Earlier results, collected in US7208138B2, “Contrast enhancement agent for magnetic resonance imaging” (Duke University, priority 2001, dated 2007).

Experiments:
TG = target: T1, TG (Homo sapiens, UniProt P21980)
T1 sequence (P21980 1-687): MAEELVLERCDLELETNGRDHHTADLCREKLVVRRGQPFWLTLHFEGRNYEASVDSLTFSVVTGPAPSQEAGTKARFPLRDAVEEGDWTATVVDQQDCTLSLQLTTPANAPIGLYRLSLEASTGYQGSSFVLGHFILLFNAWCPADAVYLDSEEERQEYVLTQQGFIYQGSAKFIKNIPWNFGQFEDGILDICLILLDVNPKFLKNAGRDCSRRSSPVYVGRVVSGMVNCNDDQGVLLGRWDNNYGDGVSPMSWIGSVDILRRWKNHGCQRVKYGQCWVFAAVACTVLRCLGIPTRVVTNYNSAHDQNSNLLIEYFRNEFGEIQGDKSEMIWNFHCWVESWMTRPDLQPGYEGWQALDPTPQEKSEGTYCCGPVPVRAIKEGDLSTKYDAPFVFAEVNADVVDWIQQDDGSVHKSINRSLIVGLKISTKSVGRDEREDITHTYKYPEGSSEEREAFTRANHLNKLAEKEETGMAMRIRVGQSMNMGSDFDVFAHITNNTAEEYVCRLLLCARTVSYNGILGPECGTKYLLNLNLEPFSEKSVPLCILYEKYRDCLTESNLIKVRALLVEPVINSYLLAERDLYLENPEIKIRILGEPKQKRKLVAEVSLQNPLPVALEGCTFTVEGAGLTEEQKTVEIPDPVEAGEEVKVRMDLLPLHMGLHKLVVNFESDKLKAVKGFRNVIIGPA

fXIIIa = target: T2, fXIIIa (Homo sapiens, UniProt P00488)
T2 sequence (P00488 39-732 limits assumed): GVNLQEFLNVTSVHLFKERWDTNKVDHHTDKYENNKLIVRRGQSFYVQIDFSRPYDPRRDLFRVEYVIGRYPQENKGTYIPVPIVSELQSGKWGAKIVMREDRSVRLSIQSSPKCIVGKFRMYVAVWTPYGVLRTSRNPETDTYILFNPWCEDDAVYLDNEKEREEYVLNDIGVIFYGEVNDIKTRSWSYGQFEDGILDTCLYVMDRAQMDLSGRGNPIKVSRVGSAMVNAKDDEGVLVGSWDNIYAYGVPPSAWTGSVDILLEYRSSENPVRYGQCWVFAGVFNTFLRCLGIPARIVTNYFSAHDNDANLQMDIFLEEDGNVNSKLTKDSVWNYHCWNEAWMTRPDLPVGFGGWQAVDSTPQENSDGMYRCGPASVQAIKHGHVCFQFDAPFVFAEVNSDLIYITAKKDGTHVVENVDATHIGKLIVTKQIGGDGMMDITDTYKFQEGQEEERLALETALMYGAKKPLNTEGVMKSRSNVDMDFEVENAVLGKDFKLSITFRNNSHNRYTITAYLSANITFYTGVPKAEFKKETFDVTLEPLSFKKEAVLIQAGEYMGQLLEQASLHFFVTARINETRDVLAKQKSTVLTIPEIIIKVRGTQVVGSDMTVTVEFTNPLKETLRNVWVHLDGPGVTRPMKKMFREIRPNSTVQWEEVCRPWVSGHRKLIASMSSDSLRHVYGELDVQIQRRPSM

[1] = fraction of the relaxivity of free gadolinium ion
[2] = time to clearance of one half from the bloodstream

| TG crosslinking / recognition (TG) | fXIIIa crosslinking / recognition (fXIIIa) | Compound | relaxivity of the complex relative to free gadolinium ion [1] | cleared from the bloodstream (½) [2] |
| --- | --- | --- | --- | --- |
| recognized | recognized | SEQ ID NO: 2: peptide of amino acid sequence NQEQVSP, the TG and fXIIIa crosslinking motif (listed as Homo sapiens) | – | – |
| inert | inert | SEQ ID NO: 3: peptide NGEQVSP, glycine at position 2; control peptide in crosslinking assays (listed as Homo sapiens) | – | – |
| – | – | O=C([O-])CN(CCN(CC(=O)[O-])CC(=O)[O-])CCN(CC(=O)[O-])CC(=O)[O-].[Gd+3] [Gd-DTPA] | about one-half | 20 min |
